Measured values reported in patent publication US6632633B1, “Process for oxidation of steroids and genetically engineered cells used therein” (Aventis Pharma, S.A., priority 1988, dated 2003).

What was measured:
[1] = biological target: T1, ADX purified from bovine adrenal cortex, P00257
T1 chain: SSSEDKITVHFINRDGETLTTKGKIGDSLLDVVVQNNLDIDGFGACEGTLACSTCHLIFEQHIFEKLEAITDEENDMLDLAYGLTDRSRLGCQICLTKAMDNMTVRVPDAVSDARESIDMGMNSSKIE

[2] = biological target: T2, Bovine adrenodoxin (ADX), mature protein with added methionine start, expressed in K. lactis from pGBADX-1 or pGBSCC/ADX-1, P00257
T2 chain: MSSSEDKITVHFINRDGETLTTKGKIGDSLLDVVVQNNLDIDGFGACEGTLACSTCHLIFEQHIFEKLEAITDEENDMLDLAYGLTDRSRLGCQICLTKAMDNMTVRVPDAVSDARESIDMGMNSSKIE

cytochrome P450SCC = biological target: T3, cytochrome P450SCC (Bos taurus, UniProt P00189); experiment: ADX activity (electron transfer from adrenodoxin reductase to cytochrome P450SCC) in cell-free extracts by P450SCC activity assay; format: biochemical, bovine; details: within 15 minutes at 30° C.
T3 construct: 1.5 μM of P450 SCC (purified from bovine adrenal cortex); from tissue; host or cells: bovine adrenal cortex
T3 sequence (P00189 40-520): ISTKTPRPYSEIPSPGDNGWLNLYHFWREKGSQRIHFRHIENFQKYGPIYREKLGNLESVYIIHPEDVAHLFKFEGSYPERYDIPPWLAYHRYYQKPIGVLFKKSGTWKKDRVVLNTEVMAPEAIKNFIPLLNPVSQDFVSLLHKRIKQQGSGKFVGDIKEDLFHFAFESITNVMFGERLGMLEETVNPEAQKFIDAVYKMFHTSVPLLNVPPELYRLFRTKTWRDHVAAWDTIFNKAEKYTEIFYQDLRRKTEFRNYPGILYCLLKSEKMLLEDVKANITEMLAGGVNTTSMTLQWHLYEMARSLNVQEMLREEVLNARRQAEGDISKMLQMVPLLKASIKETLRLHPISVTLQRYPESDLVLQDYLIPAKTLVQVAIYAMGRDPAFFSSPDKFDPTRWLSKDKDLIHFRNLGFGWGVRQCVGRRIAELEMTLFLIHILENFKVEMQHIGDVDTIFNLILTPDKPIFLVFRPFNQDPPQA
Protocol: K. lactis ADX-102, obtained as described in Example 23, and control strain K. lactis CBS 2360 were grown in 100 ml of YEPD medium (1% yeast extract, 2% peptone, 2% glucose monohydrate) containing 2.5 ml of a 6.7% (w/w) yeast nitrogen base (Difco laboratories) solution and 100 mg 1^−1 of geneticin (G418 sulfate; Gibco Ltd.), for 56 hours at 30° C. The cells were collected by centrifugation (4,000×g, 15 minutes), resuspended in a physiological salt solution and washed with a phosphate buffer (pH 7.0, 50 mM). After centrifugation (4,000×g, 15 minutes), the pellet was resuspended in a phosphate buffer (pH 7.0, 50 mM) resulting in a suspension containing 0.5 g cell wet weight/ml. The cells were disrupted using a Braun MSK Homogenizer (6×15 seconds, 0.45-0.50 mm glass beads) and unbroken cells were removed by centrifugation (4,000×g, 15 minutes). […]
ADX activity, i.e. electrotransfer capacity from adrenodoxin reductase to cytochrome P450SCC, in the cell-free extracts was determined by a P450SCC activity assay. […]
The assay was started by mixing 75 μl of solution A with 50 μl of solution B and 125 μl of cell-free extract or 125 μl of a potassium phosphate buffer (50 mM, pH 7.0) containing 10 μM ADX (purified from bovine adrenal cortex). […] The suspension was heated for 15 minutes at 120° C. and then, the ^14C/^3H ratio was determined by double label liquid scintillation counting. […]

pregnenolone = details: after expression in HeLa cells of the respective cDNA's; cited from earlier work

B1: P450SCC expressed from pre-P450SCC encoding DNA in yeast (pGBSCC-12 in K. lactis, pGBSCC-13 in S. cerevisiae SCC-105) (protein)
chain: MLARGLPLRSALVKACPPILSTVGEGWGHHRVGTGEGAGISTKTPRPYSEIPSPGDNGWLNLYHFWREKGSQRIHFRHIENFQKYGPIYREKLGNLESVYIIHPEDVAHLFKFEGSYPERYDIPPWLAYHRYYQKPIGVLFKKSGTWKKDRVVLNTEVMAPEAIKNFIPLLNPVSQDFVSLLHKRIKQQGSGKFVGDIKEDLFHFAFESITNVMFGERLGMLEETVNPEAQKFIDAVYKMFHTSVPLLNVPPELYRLFRTKTWRDHVAAWDTIFNKAEKYTEIFYQDLRRKTEFRNYPGILYCLLKSEKMLLEDVKANITEMLAGGVNTTSMTLQWHLYEMARSLNVQEMLREEVLNARRQAEGDISKMLQMVPLLKASIKETLRLHPISVTLQRYPESDLVLQDYLIPAKTLVQVAIYAMGRDPAFFSSPDKFDPTRWLSKDKDLIHFRNLGFGWGVRQCVGRRIAELEMTLFLIHILENFKVEMQHIGDVDTIFNLILTPDKPIFLVFRPFNQDPPQA
side chain cleavage of cholesterol (P450SCC activity assay, 14C/3H ratio) [1]: During 3 hours of incubation, 45% of the cholesterol had been converted

B2: P450SCC purified from bovine adrenal cortex (protein)
chain: ISTKTPRPYSEIPSPGDNGWLNLYHFWREKGSQRIHFRHIENFQKYGPIYREKLGNLESVYIIHPEDVAHLFKFEGSYPERYDIPPWLAYHRYYQKPIGVLFKKSGTWKKDRVVLNTEVMAPEAIKNFIPLLNPVSQDFVSLLHKRIKQQGSGKFVGDIKEDLFHFAFESITNVMFGERLGMLEETVNPEAQKFIDAVYKMFHTSVPLLNVPPELYRLFRTKTWRDHVAAWDTIFNKAEKYTEIFYQDLRRKTEFRNYPGILYCLLKSEKMLLEDVKANITEMLAGGVNTTSMTLQWHLYEMARSLNVQEMLREEVLNARRQAEGDISKMLQMVPLLKASIKETLRLHPISVTLQRYPESDLVLQDYLIPAKTLVQVAIYAMGRDPAFFSSPDKFDPTRWLSKDKDLIHFRNLGFGWGVRQCVGRRIAELEMTLFLIHILENFKVEMQHIGDVDTIFNLILTPDKPIFLVFRPFNQDPPQA
side chain cleavage of cholesterol (P450SCC activity assay, 14C/3H ratio) [2]: the side chain of the cholesterol was cleaved within 15 minutes in a yield of 50% | side chain cleavage of cholesterol (P450SCC activity assay, 14C/3H ratio) [1]: the side chain of the cholesterol was cleaved within 15 minutes in a yield of 50%

B3: purified ADX: adrenodoxin purified from bovine adrenal cortex, 10 μM in buffer (protein)
chain: SSSEDKITVHFINRDGETLTTKGKIGDSLLDVVVQNNLDIDGFGACEGTLACSTCHLIFEQHIFEKLEAITDEENDMLDLAYGLTDRSRLGCQICLTKAMDNMTVRVPDAVSDARESIDMGMNSSKIE
yield of cholesterol side chain cleavage (cytochrome P450SCC): 50%

B4: adrenodoxin reductase purified from bovine adrenal cortex (protein)
chain: STQEQTPQICVVGSGPAGFYTAQHLLKHHSRAHVDIYEKQLVPFGLVRFGVAPDHPEVKNVINTFTQTARSDRCAFYGNVEVGRDVTVQELQDAYHAVVLSYGAEDHQALDIPGEELPGVFSARAFVGWYNGLPENRELAPDLSCDTAVILGQGNVALDVARILLTPPDHLEKTDITEAALGALRQSRVKTVWIVGRRGPLQVAFTIKELREMIQLPGTRPMLDPADFLGLQDRIKEAARPRKRLMELLLRTATEKPGVEEAARRASASRAWGLRFFRSPQQVLPSPDGRRAAGIRLAVTRLEGIGEATRAVPTGDVEDLPCGLVLSSIGYKSRPIDPSVPFDPKLGVVPNMEGRVVDVPGLYCSGWVKRGPTGVITTTMTDSFLTGQILLQDLKAGHLPSGPRPGSAFIKALLDSRGVWPVSFSDWEKLDAEEVSRGQASGKPREKLLDPQEMLRLLGH
side chain cleavage of cholesterol (P450SCC activity assay, 14C/3H ratio) [2]: the side chain of the cholesterol was cleaved within 15 minutes in a yield of 50% | side chain cleavage of cholesterol (P450SCC activity assay, 14C/3H ratio) [1]: the side chain of the cholesterol was cleaved within 15 minutes in a yield of 50%

B5: type II 3β HSDH: human 3β HSDH type II, isolated from adrenals and gonads (protein, UniProt P26439 1-372, looked up)
3 beta-hydroxysteroid …: MGWSCLVTGAGGLLGQRIVRLLVEEKELKEIRALDKAFRPELREEFSKLQNRTKLTVLEGDILDEPFLKRACQDVSVVIHTACIIDVFGVTHRESIMNVNVKGTQLLLEACVQASVPVFIYTSSIEVAGPNSYKEIIQNGHEEEPLENTWPTPYPYSKKLAEKAVLAANGWNLKNGDTLYTCALRPTYIYGEGGPFLSASINEALNNNGILSSVGKFSTVNPVYVGNVAWAHILALRALRDPKKAPSVRGQFYYISDDTPHQSYDNLNYILSKEFGLRLDSRWSLPLTLMYWIGFLLEVVSFLLSPIYSYQPPFNRHTVTLSNSVFTFSYKKAQRDLAYKPLYSWEEAKQKTVEWVGSLVDRHKETLKSKTQ
Km (pregnenolone): 1.2 µM

B6: Bovine cytochrome P450 side chain cleavage enzyme (P450SCC), mature protein with added methionine start, expressed recombinantly (pGBSCC-5, pGBSCC-17, … (protein)
chain: MISTKTPRPYSEIPSPGDNGWLNLYHFWREKGSQRIHFRHIENFQKYGPIYREKLGNLESVYIIHPEDVAHLFKFEGSYPERYDIPPWLAYHRYYQKPIGVLFKKSGTWKKDRVVLNTEVMAPEAIKNFIPLLNPVSQDFVSLLHKRIKQQGSGKFVGDIKEDLFHFAFESITNVMFGERLGMLEETVNPEAQKFIDAVYKMFHTSVPLLNVPPELYRLFRTKTWRDHVAAWDTIFNKAEKYTEIFYQDLRRKTEFRNYPGILYCLLKSEKMLLEDVKANITEMLAGGVNTTSMTLQWHLYEMARSLNVQEMLREEVLNARRQAEGDISKMLQMVPLLKASIKETLRLHPISVTLQRYPESDLVLQDYLIPAKTLVQVAIYAMGRDPAFFSSPDKFDPTRWLSKDKDLIHFRNLGFGWGVRQCVGRRIAELEMTLFLIHILENFKVEMQHIGDVDTIFNLILTPDKPIFLVFRPFNQDPPQA
cholesterol side-chain cleaving reaction in the presence of NADPH and ADR [2]: cholesterol side-chain cleaving activity was demonstrated in the cell-free extract of K. lactis SCC/ADX-101, whereas the cell-free extract of K. lactis SCC-101, no activity was detectable

B7: type I enzyme: human 3β-hydroxy-5-ene steroid dehydrogenase/5-ene-4-ene isomerase type I, isolated from placenta, also expressed in skin (protein, UniProt P14060 2-373, looked up)
3 beta-hydroxysteroid …: TGWSCLVTGAGGFLGQRIIRLLVKEKELKEIRVLDKAFGPELREEFSKLQNKTKLTVLEGDILDEPFLKRACQDVSVIIHTACIIDVFGVTHRESIMNVNVKGTQLLLEACVQASVPVFIYTSSIEVAGPNSYKEIIQNGHEEEPLENTWPAPYPHSKKLAEKAVLAANGWNLKNGGTLYTCALRPMYIYGEGSRFLSASINEALNNNGILSSVGKFSTVNPVYVGNVAWAHILALRALQDPKKAPSIRGQFYYISDDTPHQSYDNLNYTLSKEFGLRLDSRWSFPLSLMYWIGFLLEIVSFLLRPIYTYRPPFNRHIVTLSNSVFTFSYKKAQRDLAYKPLYSWEEAKQKTVEWVGSLVDRHKETLKSKTQ
Km (pregnenolone): 0.24 µM
